Laboratory results taken from IntAct's records for PubMed 9804817.

B1: Tyrosine-protein phosphatase non-receptor type 18 (Mus musculus), Q61152 (parent)
chain: MSRHTDLVRSFLEQLEARDYREGAILAREFSDIKARSVAWKSEGVCSTKAGSRLGNTNKNRYKDVVAYDETRVILSLLQEEGHGDYINANFIRGIDGSQAYIATQGPLPHTLLDFWRLVWEFGVKVILMACQETENGRRKCERYWAREQEPLKAGPFCITLTKETTLNADITLRTLQVTFQKEFRSVHQLQYMSWPDHGVPSSSDHILTMVEEARCLQGLGPGPLCVHCSAGCGRTGVLCAVDYVRQLLLTQTIPPNFSLFQVVLEMRKQRPAAVQTEEQYRFLYHTVAQLFSRTLQDTSPHYQNLKENCAPICKEAFSLRTSSALPATSRPPGGVLRSISVPAPPTLPMADTYAVVQKRGASAGTGPGPRAPTSTDTPIYSQVAPRAQRPVAHTEDAQGTTALRRVPADQNSSGPDAYEEVTDGAQTGGLGFNLRIGRPKGPRDPPAEWTRV
B2: Tyrosine-protein phosphatase non-receptor type 18 (Mus musculus), Q61152 (parent)
chain: B1 chain
partner: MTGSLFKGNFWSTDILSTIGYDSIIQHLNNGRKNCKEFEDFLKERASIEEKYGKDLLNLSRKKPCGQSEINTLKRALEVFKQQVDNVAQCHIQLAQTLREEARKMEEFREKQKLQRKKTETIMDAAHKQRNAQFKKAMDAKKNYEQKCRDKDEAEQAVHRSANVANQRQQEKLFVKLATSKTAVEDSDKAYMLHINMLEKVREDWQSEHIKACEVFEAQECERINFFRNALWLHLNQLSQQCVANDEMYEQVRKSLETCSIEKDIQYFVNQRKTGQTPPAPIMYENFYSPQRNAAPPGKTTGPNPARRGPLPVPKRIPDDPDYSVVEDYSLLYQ
B3: Proline-serine-threonine phosphatase-interacting protein 2 (Mus musculus), Q99M15 (parent)
chain: B2 partner
partner: B1 chain
B4: Proline-serine-threonine phosphatase-interacting protein 1 (Mus musculus), P97814 (parent)
chain: MMAQLQFRDAFWCRDFTAHTGYEVLLQRLLDGRKMCKDVEELLRQRAQAEERYGKELVQIARKAGGQTEMNSLRTSFDSLKQQTENVGSAHIQLALALREELRSLEEFRERQKEQRKKYEAIMDRVQKSKLSLYKKTMESKKAYDQKCRDADDAEQAFERVSANGHQKQVEKSQNKAKQCKESATEAERVYRQNIEQLERARTEWEQEHRTTCEAFQLQEFDRLTILRNALWVHCNQLSMQCVKDDELYEEVRLTLEGCDVEGDINGFIQSKSTGREPPAPVPYQNYYDREVTPLIGSPSIQPSCGVIKRFSGLLHGSPKTTPSAPAASTETLTPTPERNELVYASIEVQATQGNLNSSAQDYRALYDYTAQNSDELDISAGDILAVILEGEDGWWTVERNGQRGFVPGSYLEKL
partner: B1 chain

Variants of: B1
Details: with ppip1_mouse Pstpip1, P97814

Row | effect of a mutation on the interaction | Variant
1 | decreasing interaction | R444A

Variants of: B1
Details: with ppip1_mouse Pstpip1, P97814
Remark: another data set of the same source

Row | effect of a mutation on the interaction | Variant
2 | decreasing interaction | W450A

Variants of: B2
Details: with ppip2_mouse Pstpip2, Q99M15

Row | effect of a mutation on the interaction | Variant
3 | decreasing interaction | R444A

Variants of: B2
Details: with ppip2_mouse Pstpip2, Q99M15
Remark: another data set of the same source

Row | effect of a mutation on the interaction | Variant
4 | decreasing interaction | W450A

Variants of: B3
Details: with ptn18_mouse Ptpn18, Q61152

Row | effect of a mutation on the interaction | Variant
5 | disrupting interaction | W232A

Variants of: B4
Details: with ptn18_mouse Ptpn18, Q61152

Row | effect of a mutation on the interaction | Variant
6 | disrupting interaction | W232A
